The sequences below were run on Escherichia coli TOP10 (assay: shrunken log2 fold change of peptide-encoding DNA abundance (4.5 h post-induction vs induction); higher = less antimicrobial activity (less host growth inhibition)). Settings: time post-induction: 4.5 h; library: site-saturation at positions 5, 18, 19, 20.
For RRIRGRPPRLPRPRPRPSCDPRP, the “shrunken log2 fold change” value was 0.543. RRIRRRPPRLPRPRPRPMYNPRP was tested, and the “shrunken log2 fold change” value was -0.137. For RRIRERPPRLPRPRPRPEEYPRP, the “shrunken log2 fold change” value was -0.4. For RRIRFRPPRLPRPRPRPHFRPRP, the “shrunken log2 fold change” value was -0.634. In the case of RRIRGRPPRLPRPRPRPQFMPRP, the “shrunken log2 fold change” value is reported as 0.0535. RRIRARPPRLPRPRPRPFYAPRP was tested, and the “shrunken log2 fold change” value was -0.066. In the case of RRIRDRPPRLPRPRPRPHYYPRP, the “shrunken log2 fold change” value is reported as -0.236. With RRIRQRPPRLPRPRPRPNGIPRP the “shrunken log2 fold change” value was -0.0272. For RRIRRRPPRLPRPRPRPCGDPRP, the “shrunken log2 fold change” value was 0.478. In the case of RRIRLRPPRLPRPRPRPVAHPRP, the “shrunken log2 fold change” value is reported as -0.454. In the case of RRIRKRPPRLPRPRPRPMNHPRP, the “shrunken log2 fold change” value is reported as 0.395. RRIRWRPPRLPRPRPRPLGCPRP was tested, and the “shrunken log2 fold change” value was 0.438. In the case of RRIRIRPPRLPRPRPRPNRAPRP, the “shrunken log2 fold change” value is reported as 1.1. In the case of RRIRGRPPRLPRPRPRPHRLPRP, the “shrunken log2 fold change” value is reported as 0.14. For RRIRWRPPRLPRPRPRPNICPRP, the “shrunken log2 fold change” value was 0.0504. For RRIRKRPPRLPRPRPRPGCQPRP, the “shrunken log2 fold change” value was 0.702. RRIRKRPPRLPRPRPRPFPWPRP was tested, and the “shrunken log2 fold change” value was 0.582. In the case of RRIRGRPPRLPRPRPRPRVLPRP, the “shrunken log2 fold change” value is reported as 0.367. For RRIRGRPPRLPRPRPRPYSLPRP, the “shrunken log2 fold change” value was -0.158. For RRIRSRPPRLPRPRPRPVYWPRP, the “shrunken log2 fold change” value was -0.175. For RRIRTRPPRLPRPRPRPRHSPRP, the “shrunken log2 fold change” value was -0.106. For RRIRQRPPRLPRPRPRPQKAPRP, the “shrunken log2 fold change” value was -0.109. In the case of RRIRLRPPRLPRPRPRPESNPRP, the “shrunken log2 fold change” value is reported as 0.0589. With RRIRYRPPRLPRPRPRPAVEPRP the “shrunken log2 fold change” value was 0.161. RRIRMRPPRLPRPRPRPGGMPRP was tested, and the “shrunken log2 fold change” value was 0.789. For RRIRIRPPRLPRPRPRPDYGPRP, the “shrunken log2 fold change” value was -0.117. With RRIRKRPPRLPRPRPRPAHYPRP the “shrunken log2 fold change” value was 0.123. RRIRFRPPRLPRPRPRPPTLPRP was tested, and the “shrunken log2 fold change” value was -0.0735. RRIRCRPPRLPRPRPRPDRDPRP was tested, and the “shrunken log2 fold change” value was 0.108. RRIRYRPPRLPRPRPRPIEFPRP was tested, and the “shrunken log2 fold change” value was -0.0341. For RRIRDRPPRLPRPRPRPIPGPRP, the “shrunken log2 fold change” value was 0.171. For RRIRERPPRLPRPRPRPHNIPRP, the “shrunken log2 fold change” value was -0.274. RRIRCRPPRLPRPRPRPKLSPRP was tested, and the “shrunken log2 fold change” value was 0.22. In the case of RRIRCRPPRLPRPRPRPSWIPRP, the “shrunken log2 fold change” value is reported as -0.732. With RRIRNRPPRLPRPRPRPIPMPRP the “shrunken log2 fold change” value was -0.026. RRIRYRPPRLPRPRPRPARNPRP was tested, and the “shrunken log2 fold change” value was -0.0503. RRIRNRPPRLPRPRPRPIVHPRP was tested, and the “shrunken log2 fold change” value was -0.205. RRIRRRPPRLPRPRPRPVQDPRP was tested, and the “shrunken log2 fold change” value was 0.252. In the case of RRIRQRPPRLPRPRPRPVRIPRP, the “shrunken log2 fold change” value is reported as -0.0391. For RRIRKRPPRLPRPRPRPLPDPRP, the “shrunken log2 fold change” value was -0.105. For RRIRWRPPRLPRPRPRPIMDPRP, the “shrunken log2 fold change” value was -0.195. With RRIRWRPPRLPRPRPRPYCEPRP the “shrunken log2 fold change” value was -0.481. With RRIRARPPRLPRPRPRPECKPRP the “shrunken log2 fold change” value was 0.769. In the case of RRIRQRPPRLPRPRPRPMFDPRP, the “shrunken log2 fold change” value is reported as -0.109. With RRIRFRPPRLPRPRPRPQWQPRP the “shrunken log2 fold change” value was -0.08. With RRIRCRPPRLPRPRPRPTPVPRP the “shrunken log2 fold change” value was 0.714. With RRIRWRPPRLPRPRPRPATYPRP the “shrunken log2 fold change” value was 0.0311. RRIRWRPPRLPRPRPRPAQQPRP was tested, and the “shrunken log2 fold change” value was -0.00145. For RRIRIRPPRLPRPRPRPCHCPRP, the “shrunken log2 fold change” value was 0.0274. RRIRVRPPRLPRPRPRPTSQPRP was tested, and the “shrunken log2 fold change” value was 0.00273. RRIRIRPPRLPRPRPRPLYCPRP was tested, and the “shrunken log2 fold change” value was -0.744. In the case of RRIRNRPPRLPRPRPRPNRIPRP, the “shrunken log2 fold change” value is reported as -0.233. RRIRLRPPRLPRPRPRPNMVPRP was tested, and the “shrunken log2 fold change” value was -0.126. In the case of RRIRTRPPRLPRPRPRPFDKPRP, the “shrunken log2 fold change” value is reported as -0.154. For RRIRWRPPRLPRPRPRPDNGPRP, the “shrunken log2 fold change” value was 0.0563. In the case of RRIRERPPRLPRPRPRPEDTPRP, the “shrunken log2 fold change” value is reported as -0.343. In the case of RRIRARPPRLPRPRPRPDWPPRP, the “shrunken log2 fold change” value is reported as 0.98. In the case of RRIRCRPPRLPRPRPRPKSQPRP, the “shrunken log2 fold change” value is reported as 0.276. RRIRWRPPRLPRPRPRPESYPRP was tested, and the “shrunken log2 fold change” value was -0.134. In the case of RRIRSRPPRLPRPRPRPWNIPRP, the “shrunken log2 fold change” value is reported as -0.0599. In the case of RRIRTRPPRLPRPRPRPFAFPRP, the “shrunken log2 fold change” value is reported as 0.0192. With RRIRPRPPRLPRPRPRPHSFPRP the “shrunken log2 fold change” value was -0.0599. RRIRHRPPRLPRPRPRPQMTPRP was tested, and the “shrunken log2 fold change” value was -0.104. For RRIRSRPPRLPRPRPRPPMEPRP, the “shrunken log2 fold change” value was -0.117. For RRIRQRPPRLPRPRPRPFRFPRP, the “shrunken log2 fold change” value was 0.0421. In the case of RRIRCRPPRLPRPRPRPSAAPRP, the “shrunken log2 fold change” value is reported as 0.386. With RRIRERPPRLPRPRPRPGSIPRP the “shrunken log2 fold change” value was 0.0371. RRIRIRPPRLPRPRPRPPGDPRP was tested, and the “shrunken log2 fold change” value was -0.0965. RRIRFRPPRLPRPRPRPRREPRP was tested, and the “shrunken log2 fold change” value was 0.177. With RRIRMRPPRLPRPRPRPPEIPRP the “shrunken log2 fold change” value was 0.48. RRIRHRPPRLPRPRPRPYCCPRP was tested, and the “shrunken log2 fold change” value was -0.305. For RRIRGRPPRLPRPRPRPIQNPRP, the “shrunken log2 fold change” value was 0.0261. RRIRFRPPRLPRPRPRPPHMPRP was tested, and the “shrunken log2 fold change” value was -0.137. With RRIRKRPPRLPRPRPRPWEIPRP the “shrunken log2 fold change” value was -0.00947. With RRIRRRPPRLPRPRPRPAINPRP the “shrunken log2 fold change” value was -0.0133.
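Also: peptides expressed intracellularly from a pBAD plasmid library in pooled LB shake-flask culture, induced with 0.3% L-arabinose, DNA abundance read by NGS, three biological replicates, DESeq2 with apeglm shrinkage.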
